Results as given in paper PMC10139993.

T1: Fused in sarcoma (FUS) wildtype with N-terminal GFP tag, P35637
T1 chain: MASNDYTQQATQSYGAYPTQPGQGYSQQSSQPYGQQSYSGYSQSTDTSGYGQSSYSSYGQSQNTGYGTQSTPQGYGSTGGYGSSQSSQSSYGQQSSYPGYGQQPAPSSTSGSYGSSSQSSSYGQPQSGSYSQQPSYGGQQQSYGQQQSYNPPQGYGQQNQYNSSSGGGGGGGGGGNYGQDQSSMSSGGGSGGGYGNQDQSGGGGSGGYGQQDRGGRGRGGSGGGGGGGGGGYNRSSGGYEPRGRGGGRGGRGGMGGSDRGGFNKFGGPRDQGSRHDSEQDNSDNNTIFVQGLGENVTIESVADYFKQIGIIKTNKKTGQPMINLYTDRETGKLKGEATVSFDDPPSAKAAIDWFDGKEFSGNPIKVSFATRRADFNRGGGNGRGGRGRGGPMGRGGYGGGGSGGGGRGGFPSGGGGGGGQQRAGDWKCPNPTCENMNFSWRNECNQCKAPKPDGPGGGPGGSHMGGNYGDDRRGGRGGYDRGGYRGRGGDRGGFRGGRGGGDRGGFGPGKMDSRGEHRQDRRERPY


How the values were obtained:
[1] = target: GFP only (eGFP expressed from the pcDNA3.1(+)-N-eGFP backbone without gene insertion); test: single-molecule pull-down (SiMPull) with GFP photobleaching step counting; diluted NP40 lysate (1:100-1:10,000 in T50: 10 mM Tris-Cl pH 8.0, 50 mM NaCl) of transfected SH-SY5Y cells flowed over a PEG/neutravidin surface with biotinylated anti-GFP antibody; 488 nm TIRF, room temperature; photobleaching steps counted per spot; 30% dimers subtracted for GFP self-dimerisation; cells without or with 0.4 M sorbitol 4 h (also arsenite) before lysis
[2] = target: T1, Fused in sarcoma (FUS) wildtype with …; test: single-molecule pull-down (SiMPull) with GFP photobleaching step counting; diluted NP40 lysate (1:100-1:10,000 in T50: 10 mM Tris-Cl pH 8.0, 50 mM NaCl) of transfected SH-SY5Y cells flowed over a PEG/neutravidin surface with biotinylated anti-GFP antibody; 488 nm TIRF, room temperature; photobleaching steps counted per spot; 30% dimers subtracted for GFP self-dimerisation; cells without or with 0.4 M sorbitol 4 h …; details: remark: other sources report otherwise

Molecule | percent dimers [1] [%] | percent monomers [1] [%] | average photobleaching step (after subtracting the GFP self-dimer fraction) [2] [steps] | increase in average photobleaching steps with sorbitol stress [2] [steps]
GFP only (eGFP expressed from the pcDNA3.1(+)-N-eGFP backbone without gene insertion) | 30 | 70 | – | –
Fused in sarcoma (FUS) wildtype with N-terminal GFP tag, P35637 1-526 (natural protein) MASNDYTQQATQSYGAYPTQPGQGYSQQSSQPYGQQSYSGYSQSTDTSGYGQSSYSSYGQSQNTGYGTQSTPQGYGSTGGYGSSQSSQSSYGQQSSYPGYGQQPAPSSTSGSYGSSSQSSSYGQPQSGSYSQQPSYGGQQQSYGQQQSYNPPQGYGQQNQYNSSSGGGGGGGGGGNYGQDQSSMSSGGGSGGGYGNQDQSGGGGSGGYGQQDRGGRGRGGSGGGGGGGGGGYNRSSGGYEPRGRGGGRGGRGGMGGSDRGGFNKFGGPRDQGSRHDSEQDNSDNNTIFVQGLGENVTIESVADYFKQIGIIKTNKKTGQPMINLYTDRETGKLKGEATVSFDDPPSAKAAIDWFDGKEFSGNPIKVSFATRRADFNRGGGNGRGGRGRGGPMGRGGYGGGGSGGGGRGGFPSGGGGGGGQQRAGDWKCPNPTCENMNFSWRNECNQCKAPKPDGPGGGPGGSHMGGNYGDDRRGGRGGYDRGGYRGRGGDRGGFRGGRGGGDRGGFGPGKMDSRGEHRQDRRERPY | – | – | 1.5 | 0.5
